Experimental data reported in US11549134B2, “Modified amadoriase and method for producing the same, agent for improving surfactant resistance of amadoriase and composition for measuring HbA1c using the same” (Kikkoman Corporation, priority 2013, dated 2023).

Assays:
Format in all cases: biochemical
[1] = Surfactant resistance (residual activity) of purified enzymes with various surfactants; details: 20 mM potassium phosphate pH 7.0, purified enzyme
Protocol: (§1) An amadoriase crude enzyme solution or an amadoriase purified sample is diluted with a 30 mM MES/21 mM Tris buffer solution (pH6.5) so as to have a concentration of about 1.0 U/ml. To this, CTAC (for example, manufactured by Tokyo Kasei Kogyo Co., Ltd.) is added so as to obtain a final concentration 0.01% (w/v) or 0.04%. The resultant mixture is heated at 30° C. for 5 minutes. After heating, the mixture is diluted double with a 10 mM phosphate buffer (pH7.0) containing 0.15% BSA to prepare a sample. The enzyme activities of the sample before and after a surfactant treatment are measured by the method described in Section B above. The ratio of activity of the sample after the surfactant treatment relative to the activity of the sample before the surfactant treatment (regarded as 100), i.e., the residual activity (%), is obtained. In this manner, surfactant resistance is evaluated.
Using various surfactants, the stability of the purified enzymes CFP-T7, CFP-D2, and CFP-D7 obtained as described above was evaluated. The surfactant resistance of the modified amadoriases was evaluated in accordance with a measurement method for surfactant resistance according to Example 1 although under surfactant treatment conditions in which the amadoriases were each diluted in a 20 mM potassium phosphate buffer solution (pH 7.0) and mixed with any of various concentrations of the surfactants. In this respect, it was confirmed that when the warmed sample was again measured for activity 30 minutes after 2-fold dilution in a BSA solution, there was no change in the activity value.

[2] = Measurement of fructosyl peptide sample (αFVH) under mixing of CTAC, change in absorbance at 751 nm
Protocol: The purified enzyme of CFP-T7 and CFP-D7 obtained in Example 3-2 was used to measure a sample as shown below. The activity values of CFP-T7 and CFP-D7 were determined using (reagent 1) adjusted to pH 7.0 with αFVH at a final concentration of 5 mM as a substrate according to the method for measuring amadoriase activity.
(Reagent 4) αFVH (125 mg) was dissolved in ion-exchanged water, the volume of the solution was fixed to 10 ml, and thereby a 30 mM substrate solution was obtained. In addition, the resultant was diluted by 1/714 with a CTAC solution to provide a 42 μM αFVH/0% to 0.2% CTAC solution.
(Reagent 6) (50 μl) was added to a mixed solution of 135 μl of (reagent 5) warmed at 37° C. for 5 minutes in advance and 25 μl of the sample prepared in (11) above to start reaction, and absorbance at a wavelength of 751 nm after reaction at 37° C. for 5 minutes was measured using an automated analyzer, Bio Majesty JCA-BM1650 (from JEOL Ltd.). Absorbance (reagent blank) at a wavelength of 751 nm measured by a similar operation for (reagent 4) prepared using ion-exchanged water in place of the substrate solution was used as a control to calculate the amount of change in absorbance (difference) when each sample was measured, using the following equation. The final concentration of a colorimetric substrate, DA-64, was 0.15 mM; the final concentration of αFVH in the case of the presence of a substrate was 5 μM; and the length (optical path) of the cell used for absorbance measurement was 1 cm. Amount of change in absorbance=ΔAes−Ae0
The amount of change in absorbance when αFVH/0% to 0.2% CTAC were used as samples was calculated.
The purified preparations of amadoriases obtained as described above were used as samples to measure αFVH under the mixing of CTAC using PnFX and NvFX as in Example 5.

[3] = Surfactant resistance (residual activity) of CFP-D multiple variants, 0.04% CTAC; details: 30°C, 5 minutes, crude enzyme
Protocol: as §1, with “evaluated. […]” for “evaluated.”

[4] = Surfactant resistance (residual activity), 0.04% SDS; details: 30 mM MES/21 mM Tris buffer (pH 6.5)
Protocol: as §1, with “The ratio of activity of the sample after the surfactant treatment relative to the activity of the sample before the surfactant treatment (regarded as 100), i.e., the residual activity (%), is obtained.” left out
The stability of CFP-D was evaluated using sodium dodecyl sulfate (hereinafter indicated with “SDS”) in place of the surfactant CTAC used in Example 2. The surfactant resistance of the modified amadoriases was evaluated in accordance with a measurement method for surfactant resistance according to Example 1 although under surfactant treatment conditions in which the amadoriases were each diluted in a 30 mM MES/21 mM Tris buffer solution (pH 6.5) and mixed with 0.04% SDS. In this respect, it was confirmed that when the warmed sample was again measured for activity 30 minutes after 2-fold dilution in a BSA solution, there was no change in the activity value.

B1: CFP-T7: amadoriase derived from the genus Coniochaeta, SEQ ID NO: 1; triple variant with mutations at positions 272, 302 and 388 (protein, listed as Coniochaeta sp.)
chain: MTSNRADTRVIVVGGGGTIGSSTALHLVRSGYAPANITVLDTFEIPSAQSAGHDLNKIMGIRLRNKVDLQMSLEARQMWKEDELFQPFFHNTGRMDCEHTPEGIEDLKKQYQALHDAGAGLEKTHAWLDNEDEILSKMPLLQRDQIQGWKAIWSQDGGWLAAAKAINAIGQFLKERGVKFGFGGAGSFKQPLFDDEGTTCIGVETADGTKYYADKVVLAAGAWSPTLVDLEDQCCSKAWVYAHIQLTPEEAAEYKGVPVVYNGEFGFFFEPDEFGVIKVCDEFPGFSRFKEHQPYGAPSPKRISVPRSHAKHPTDTYPDASEVSIKKAIATFLPRFQDKELFNRALCWCTDTADAALLMCEHPKWKNFILATGDSGHSFKILPNVGKYVVELIEGRLPEEMAYQWRWRPGGDALKSRRAAPPKDLADMPGWKHDPKL
- Residual Activity(%) ([1]; Benzylcetyldimethyl ammonium Chloride (BCDAC) 0.04%): 1.4%
- Residual Activity(%) ([1]; Benzyldodecyldimethyl ammonium Bromide (BDDAB) 0.10%): 1.4%
- Residual Activity(%) ([1]; Benzyltetradecyldimethyl ammonium Chloride (BDTAC) 0.04%): 0.7%
- Residual Activity(%) ([1]; Dodecylpyridinium Chloride (1-DPC) 0.16%): 3.4%
- Residual Activity(%) ([1]; Dodecyltrimethylammonium Bromide (DTAB) 0.30%): 12.2%
- Residual Activity(%) ([1]; Hexadecylpyridinium Bromide (1-CPB) 0.04%): 0.7%
- Residual Activity(%) ([1]; Hexadecylpyridinium Chloride (1-CPC) 0.04%): 1.4%
- Residual Activity(%) ([1]; Hexadecyltrimethylammonium Chloride (CTAC) 0.04%): 2.3%
- Residual Activity(%) ([1]; N-Cetyl-4-methylpyridinium Chloride (4Me-1-CPC) 0.04%): 1.5%
- Residual Activity(%) ([1]; Octadecyltrimethylammonium Bromide (STAB) 0.01%): 59.7%
- Residual Activity(%) ([1]; Octadecyltrimethylammonium Chloride (STAC) 0.02%): 49.3%
- Residual Activity(%) ([1]; Octyltrimethylammonium Bromide (OTAB) 0.80%): 87.7%
- Residual Activity(%) ([1]; Octyltrimethylammonium Chloride (OTAC) 1.20%): 94.1%
- Residual Activity(%) ([1]; Tetradecyltrimethylammonium Bromide (TTAB) 0.04%): 31.7%
- Residual Activity(%) ([1]; Tetradecyltrimethylammonium Chloride (TTAC) 0.04%): 4.1%
- Residual Activity(%) ([1]; Tributylhexadecyl phosphonium Bromide (TBCPB) 0.04%): 3.1%
- Amount of Change in Absorbance at Wavelength of 751 nm under Mixing of Each Concentration of CTAC ([2]; Mixing of CTAC 0%, as in Example 5, Table 7): 0.150
- Amount of Change in Absorbance at Wavelength of 751 nm under Mixing of Each Concentration of CTAC ([2]; Mixing of CTAC 0%, αFVH final 5 μM, 37°C, 5 minutes, Table 5): 0.150
- Amount of Change in Absorbance at Wavelength of 751 nm under Mixing of Each Concentration of CTAC ([2]; Mixing of CTAC 0.005%, αFVH final 5 μM, 37°C, 5 minutes, Table 5): 0.111
- Amount of Change in Absorbance at Wavelength of 751 nm under Mixing of Each Concentration of CTAC ([2]; Mixing of CTAC 0.01%, as in Example 5, Table 7): 0.077
- Amount of Change in Absorbance at Wavelength of 751 nm under Mixing of Each Concentration of CTAC ([2]; Mixing of CTAC 0.01%, αFVH final 5 μM, 37°C, 5 minutes, Table 5): 0.077
- Amount of Change in Absorbance at Wavelength of 751 nm under Mixing of Each Concentration of CTAC ([2]; Mixing of CTAC 0.02%, as in Example 5, Table 7): 0.031
- Amount of Change in Absorbance at Wavelength of 751 nm under Mixing of Each Concentration of CTAC ([2]; Mixing of CTAC 0.02%, αFVH final 5 μM, 37°C, 5 minutes, Table 5): 0.031
- Amount of Change in Absorbance at Wavelength of 751 nm under Mixing of Each Concentration of CTAC ([2]; Mixing of CTAC 0.04%, as in Example 5, Table 7): 0.005
- Amount of Change in Absorbance at Wavelength of 751 nm under Mixing of Each Concentration of CTAC ([2]; Mixing of CTAC 0.04%, αFVH final 5 μM, 37°C, 5 minutes, Table 5): 0.005
- Residual Activity(%) [3]: 2.27%
- Residual Activity(%) [4]: 2.76%
